Laboratory results reported in paper doi:10.1101/2020.07.10.197400 (bioRxiv, 2020).
Each block holds one molecule with its values, some of them ahead of it.

Legend:
[1] = molecular target: Trx-kindlin2_F2 (residues 260 – 572) without PH domain (mouse); assay: SEC-MALS
SEC-MALS = molecular target: the molecule itself; assay: SEC-MALS

stoichiometry N [1]: 2
Molecule: Trx-kindlin2_F2 (residues 260 – 572) without PH domain (domain or fragment)

B1: GCN4-tetramerized β1-integrin tail (domain or fragment)
chain: MKQIEDKLEEILSKLYHIENELARIKKLLGERIIHDRREFAKFEKEKMNAKWDTGENPIYKSAVTTVVNPKYEGK
stoichiometry N (SEC-MALS): 4
